Experimental data as given in patent publication US20210198672A1, “APTAMER FOR SCLEROSTIN AND USE THEREOF” (APTACURE THERAPEUTICS LIMITED, published 2021).
Where a chain is given by its changes, count along the chain named.

B1: aptscl 32 (ssDNA)
DNA: CGTACGGTCGACGCTAGCTGTGTTAATCGCCGTACCTCCACGTGGAGCTCGGATCC
B2: aptscl 51 (ssDNA)
DNA: CGTACGGTCGACGCTAGCTGGGGGTAGGGGGTCCTTGGCTACGGTGATTCGGATGTGACACGTGGAGCTCGGATCC
B3: aptscl 6 (ssDNA)
DNA: CGTACGGTCGACGCTAGCTGGAAGGGTGGGGGCGGGGGGTCCTCGCCTCGAACGTACGCACGTGGAGCTCGGATCC
B4: aptscl 12 (ssDNA)
DNA: CGTACGGTCGACGCTAGCCGTTGACTCGTTGCTACACGTGGAGCTCGGATCC
B5: aptscl 29 (ssDNA)
DNA: CGTACGGTCGACGCTAGCCGGAGACCTGAGGTTCACGTGGAGCTCGGATCC
B6: aptscl 5 (ssDNA)
DNA: CGTACGGTCGACGCTAGCTGTTGTTCATCGACTTGACGCACGTGGAGCTCGGATCC
B7: aptscl 1 (ssDNA)
DNA: B6 DNA with G20C, C32T, T33C, T34C, G35T
B8: aptscl 9 (ssDNA)
DNA: CGTACGGTCGACGCTAGCTGGGGGTAGGGGGACCCTGGCTAGTTAGTCACCGTTTCGACACGTGGAGCTCGGATCC
B9: aptscl 2 (ssDNA)
DNA: CGTACGGTCGACGCTAGCCAGCCAAAGACAGAGATGCACGTGGAGCTCGGATCC
B10: aptscl 8 (ssDNA)
DNA: CGTACGGTCGACGCTAGCCGGCGAAATTGCTACCACGTGGAGCTCGGATCC
B11: aptscl 22 (ssDNA)
DNA: CGTACGGTCGACGCTAGCTGGGTTTATCGACTAGTTCCACGTGGAGCTCGGATCC
B12: aptscl 3 (ssDNA)
DNA: CGTACGGTCGACGCTAGCTGTTGTACATCGCCTTACGCACGTGGAGCTCGGATCC

What follows are binders tested against T1, sclerostin (SOST), expressed from plasmid in MC3T3-E1 cells (UniProt Q9BQB4 SEQ:1-190) (assay: cell_activity; TOP-Wnt luciferase reporter, MC3T3-E1). Details: not given.
T1 sequence (Q9BQB4 24-213): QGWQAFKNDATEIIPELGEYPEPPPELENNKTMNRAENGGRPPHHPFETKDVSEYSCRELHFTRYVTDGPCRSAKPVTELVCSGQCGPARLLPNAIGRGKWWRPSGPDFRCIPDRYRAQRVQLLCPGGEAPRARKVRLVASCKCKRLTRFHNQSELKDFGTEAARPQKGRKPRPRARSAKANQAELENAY
Protocol: (§1) MC3T3-E1 cells were seeded in 24-well plates and cells were transfected with corresponding reporter plasmid (100 ng), Wnt3a plasmid (800 ng) and sclerostin plasmid (800 ng) as necessary using FuGENE HD transfection reagent (Promega) in the following day. 10 hours after transfection, culture medium was changed to fresh medium and cells were treated with aptamers/antibody. 24 hours after treatment, each well of cells was lysed with 100 μl passive lysis buffer and 20 μl was taken for analysis. The Luciferase Assay Reagent II and Stop & Glo Reagent were prepared and added automatically by SpectraMax i3x Multi-Mode Detection Platform (Molecular Device) according to the manufacturer's protocol (Promega) and data was analyzed accordingly (Grentzmann, Ingram et al. 1998, McNabb, Reed et al. 2005).
(§2) Binding affinity and in vitro inhibition potency were performed using the same protocols in previous studies.

GCTAGCTGTTGTACATCGCCTTACGCACGTG (ssDNA) [aptscl 3-5] showed an EC50 of 28.4 µg/mL.

What follows are binders tested against T1, sclerostin (SOST), expressed from … (assay: cell_activity; TOP-Wnt luciferase reporter; stated as inhibition potency). Details: not given.

GCTAGCTGTTGTACATCGCCTTACGCACGTG (ssDNA, 2'-OMe at first four (GCTA) and last four (CGTG) nucleotides; 3' idT) [modified aptscl 3-5] and CGGGGTGTGGGTTCGTCGTTAGCTTGATTTGGCAGCTGCCC (ssDNA, 2'-OMe at first four (CGGG) and last four (GCCC) nucleotides; 3' idT) [modified aptscl 56] are within 1.5-fold of each other in EC50: 11 µg/mL for the first, 14 µg/mL for the second.

These binders were tested against T2, sclerostin (SOST) (Homo sapiens, UniProt Q9BQB4 SEQ:1-190) (assay: ELONA; PBS, 1 mM MgCl2, RT). Details: tags: His6 (stated for the SELEX protein); ELONA used purified recombinant human sclerostin.
T2 sequence (Q9BQB4 24-213): as the sequence (Q9BQB4 24-213) above
Protocol: (§3) An Enzyme-linked OligoNucleotide Assay (ELONA) was performed to determine the binding affinity of the aptamer candidates to sclerostin (Drolet, Moon-McDermott et al. 1996). Similarly, an Enzyme-linked ImmunoSorbent Assay (ELISA) was performed to determine the binding affinity of anti-sclerostin antibody to human sclerostin (Engvall and Perlmann 1971). 160 ng purified recombinant human sclerostin was coated to 96-well microtiter plate in 100 μl PBS by incubating at 4° C. overnight. The plate was then blocked with blocking buffer (PBS, 0.1% Tween 20 and 1% BSA) for 1 h at room temperature and washed with SELEX B&W buffer (PBS, 1 mM MgCl₂, 0.1% Tween 20 and 0.1% BSA) for 4 times. The aptamer candidates were denatured at 95° C. for 10 min and rapidly cooled on ice for 10 min before use. Appropriate concentrations of biotinylated aptamers/antibody were added into each well, then added SELEX B&W buffer to 100 μl and incubated for 45 min at room temperature with continuous gentle shaking. After binding, the plate was washed with SELEX B&W buffer for 4 times to remove non-specific and very weak binding, followed by washing with PBST+0.1% BSA for 4 times. 100 μl streptavidin-HRP/goat anti-human IgG Fc-HRP (1:10000 dilute into PBST+0.1% BSA) was added to each well and incubated for 30/60 min and washed with PBST+0.1% BSA for 4 times. 50 μl TMB was added to each well and incubated for 20 min. The reaction was stopped by adding 50 μl 2 M H₂SO₄. Absorbance at 450 nm was measured with microplate reader (Stoltenburg, Krafcikova et al. 2016). Data was analyzed with Origin software (OriginLab, Northampton, Mass.). A non-linear curve fitting model Hyperbl was used to plot is the binding curve. Equation of Hyperbl model is y=P1*x/(P2+x) and P2 is the Kd value.

Compared with B1, CCCAGACGAGACACCTCATGCTTTTCCCCGGGGGAGGGGTAT (ssDNA) [aptscl 132] is 230-fold higher in Kd: 0.18 nM for the first, 42.2 nM for the second.

First: B2
Second: B3
The Kd of the first is 15-fold higher: 62.2 nM for the first, 4.2 nM for the second. The second binds more tightly here.

Going from B4 to B5, the Kd rises from 0.005 nM to 0.28 nM (56-fold).

Compared with B6, B7 is 4-fold higher in Kd: 0.005 nM for the first, 0.02 nM for the second. The first binds more tightly here.

Going from B8 to B9, the Kd falls from 3.4 nM to 0.006 nM (570-fold). The second binds more tightly here.

Compared with B10, B11 is 150-fold higher in Kd: 0.005 nM for the first, 0.76 nM for the second. The first binds more tightly here.

Target: T2, sclerostin (SOST)
Test: ELONA; PBS, 1 mM MgCl2, RT
Details: tags: His6 (stated for the SELEX protein); ELONA used purified recombinant human sclerostin
Remark: another data set of the same source

Going from GCTAGCTGTTGTACATCGCCTTACGCACGTG (ssDNA, 2'-OMe at first four (GCTA) and last four (CGTG) nucleotides; 3' idT) [modified aptscl 3-5] to CGGGGTGTGGGTTCGTCGTTAGCTTGATTTGGCAGCTGCCC (ssDNA, 2'-OMe at first four (CGGG) and last four (GCCC) nucleotides; 3' idT) [modified aptscl 56], the Kd rises from 0.54 nM to 6.55 nM (12-fold). The first binds more tightly here.

What follows are binders tested against T2, sclerostin (SOST) (assay: ELONA; PBS, 1 mM MgCl2, 0.1% Tween 20, 0.1% BSA, RT). Details: tags: His6 (stated for the SELEX protein); ELONA used purified recombinant human sclerostin.
Protocol: as §3, with “100 μl streptavidin-HRP/goat anti-human IgG Fc-HRP (1:10000 dilute into PBST+0.1% BSA) was added to each well and incubated for 30/60 min and washed with PBST+0.1% BSA for 4 times. 50 μl TMB was added to each well and incubated for 20 min. The reaction was stopped by adding 50 μl 2 M H₂SO₄.” left out, “A non-linear curve fitting model Hyperbl was used to plot is the binding curve. Equation of Hyperbl model is y=P1*x/(P2+x) and P2 is the Kd value.” left out

With CGGGGTGTGGGTTCGTCGTTAGCTTGATTTGGCAGCTGCC (ssDNA) [aptscl 56] the Kd was 43.1 nM.

Target: T1, sclerostin (SOST), expressed from …
Test: cell_activity; TOP-Wnt luciferase reporter, MC3T3-E1
Details: not given
Remark: another data set of the same source
Protocol: as §1
The inhibition to sclerostin was dose dependent and the response was stable when the concentrations of aptscl 56 and 6 reached to 25 and 47.4 μg/ml, respectively. While treated with antibody, the response was still not stable with the concentration increasing to 20 mg/ml. Furthermore, the inhibition potency of aptscl 56, aptscl 6 and aptscl 3 was analyzed with non-linear curve fitting.

First: CGGGGTGTGGGTTCGTCGTTAGCTTGATTTGGCAGCTGCC (ssDNA) [aptscl 56]
Second: B3
The EC50 of the first is 1.9-fold lower: 19.7 µg/mL for the first, 36.8 µg/mL for the second.

B12 showed an EC50 of 18.2 µg/mL.

What follows are binders tested against T2, sclerostin (SOST) (assay: ELONA; PBS, 1 mM MgCl2, RT; Table 2 gives 0.02 nM). Details: tags: His6 (stated for the SELEX protein); ELONA used purified recombinant human sclerostin.
Protocol: as §3, with “100 μl streptavidin-HRP/goat anti-human IgG Fc-HRP (1:10000 dilute into PBST+0.1% BSA) was added to each well and incubated for 30/60 min and washed with PBST+0.1% BSA for 4 times. 50 μl TMB was added to each well and incubated for 20 min. The reaction was stopped by adding 50 μl 2 M H₂SO₄.” left out, “A non-linear curve fitting model Hyperbl was used to plot is the binding curve. Equation of Hyperbl model is y=P1*x/(P2+x) and P2 is the Kd value.” left out

B12 gave a Kd of 0.04 nM.

Target: T2, sclerostin (SOST)
Test: ELONA; PBS, 1 mM MgCl2, RT
Details: tags: His6 (stated for the SELEX protein); ELONA used purified recombinant human sclerostin
Remark: another data set of the same source
Protocol: as §3, §2

Compared with CGTACGGTCGACGCTAGCTGTTGTACATCGCCTTACGCACGTGGAGCTC (ssDNA) [aptscl 3-2], GCTAGCTGTTGTACATCGCCTTACGCACGTG (ssDNA) [aptscl 3-5] is 2.4-fold lower in Kd: 0.52 nM for the first, 0.22 nM for the second.

Compared with GTCGACGCTAGCTGTTGTACATCGCCTTACGCACGTGGAGCTCGGATCC (ssDNA) [aptscl 3-1], GTCGACGCTAGCTGTTGTACATCGCCTTACGCACGTG (ssDNA) [aptscl 3-4] is 3.9-fold lower in Kd: 0.86 nM for the first, 0.22 nM for the second. The second binds more tightly here.

GCTAGCTGTTGTACATCGCCTTACGCACGTGGAGCTC (ssDNA) [aptscl 3-3] showed a Kd of 0.2 nM.
